Measurements published in PMC3575409, “Identification of a Novel Protein-Protein Interaction Motif Mediating Interaction of GPCR-Associated Sorting Proteins with G Protein-Coupled Receptors” (PLoS ONE, 2013).

Tested on: GST-fused ADRB2 C-tail
Assay: GST-pull down, ADRB2 C-tail
Format: binding
Conditions: central domain compared to full-length GASP-1
Description: cDNAs encoding the cytoplasmic C-tail of 14 GPCRs and 2 one-transmembrane receptors were cloned into the pGEX-2T prokaryotic expression vector downstream the GST sequence. […]
GST-fusion proteins were immobilized on glutathione-coupled Sepharose beads (GE Healthcare) for 1 h at 4°C and incubated with [^35S]-labelled in vitro translated GASP proteins or their truncated or mutated forms in ice-cold binding buffer containing: 20 mM Tris-HCl pH 7.4, 150 mM NaCl, 1 mM EDTA, 1 mM DTT, 10% glycerol and 1% Triton X-100. […] The supernatants were then analyzed by SDS-PAGE, the gels were stained with Coomassie blue to visualize GST-fusion proteins, dried and analyzed using a Phosphor-imager (Personal Molecular Imager FX, Biorad) to visualize [^35S]-labelled GASPs. Quantification was performed with the Quantity One software (Biorad). GST-pull down quantification data were analyzed using GraphPad Prism 4.03 (GraphPad Software). Quantifications presented are means of at least three independent experiments.

B1: central domain of GASP-1: central portion of GASP-1 (AA 380 to 1073) that contains 19 GASP motif (protein)
chain: MTKEEAKTKARARAKQEARSEEEALIGTWFWATDESSMADEASIESSLQVEDESIIGSWFWTEEEASMGTGASSKSRPRTDGERIGDSLFGAREKTSMKTGAEATSESILAADDEQVIIGSWFWAGEEVNQEAEEETIFGSWFWVIDAASVESGVGVSCESRTRSEEEEVIGPWFWSGEQVDIEAGIGEEARPGAEEETIFGSWFWAENQTYMDCRAETSCDTMQGAEEEEPIIGSWFWTRVEACVEGDVNSKSSLEDKEEAMIPCFGAKEEVSMKHGTGVRCRFMAGAEETNNKSCFWAEKEPCMYPAGGGSWKSRPEEEEDIVNSWFWSRKYTKPEAIIGSWLWATEESNIDGTGEKAKLLTEEETIINSWFWKEDEAISEATDREESRPEAEEGDIIGSWFWAGEEDRLEPAAETREEDRLAAEKEGIVGSWFGAREETIRREAGSCSKSSPKAEEEEVIIGSWFWEEEASPEAVAGVGFESKPGTEEEEITVGSWFWPEEEASIQAGSQAVEEMESETEEETIFGSWFWDGKEVSEEAGPCCVSKPEDDEEMIVESWFWSRDKAIKETGTVATCESKPENEEGAIVGSWFEAEDEVDNRTDNGSNCGSRTLADEDEAIVGSWFWAGDEAHFESNPSPVFRAICRSTCSVEQEPDPSRRPQSWEEVTVQFKPGPWGRVGFPSISPFRFPKE
modifications: left off: GST, N-terminal, kept
notes: central portion of GASP-1 (AA 380 to 1073) that contains 19 GASP motif
interaction with ADRB2 C-tail: mandatory and sufficient for this interaction
